Measured values reported in the supplement of paper PMC10567573.
± gives the standard deviation.

Assay: protein stability index of a GFP-peptide fusion (GPS, HEK-293T) (PSI 1-6); higher = more stable
Settings: c terminus: a fixed tail appended
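Note: 24-mer peptide tiles fused after GFP, lentivirally expressed, FACS-sorted into six equal bins by GFP/DsRed ratio, decoded by Illumina sequencing, PSI is the read-weighted mean bin number.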

Sequence | protein stability index (treatment: DMSO) | protein stability index (treatment: MLN4924 1 uM, 8 h)
LYLIMEFLPGGDMMTLLMKKDTLT [STK38L] | 3.03 ± 0.13 | 2.94 ± 0.81
LYVSGLPKTMSQKEMEQLFSQYGR [ELAVL3] | 2.55 ± 0.14 | 2.66 ± 0.39
LYYSNFVLALEERFGVRPKVTGYL [MFSD9] | 2.76 ± 0.86 | 2.91 ± 0.79
MAEESSCTRDCMSFSVLNWDQVSR [TENT5C] | 2.71 ± 0.29 | 2.99 ± 0.22
MALTPVVVTLWYRAPEVLLQSTYA [CDK4] | 3.04 ± 0.41 | 3.06 ± 0.45
MASSAAGCVVIVGSGVIGRSWAML [CRYL1] | 3.7 ± 0.13 | 2.89 ± 1.8
MAVRLAGGLQKMVALLNKTNVKFL [CTNNB1] | 2.871 ± 0.006 | 2.63 ± 0.76
MDIESLSVFTEPNRHFYREMQSFS [FBXO33] | 2.39 ± 0.33 | 2.3 ± 0.24
MEEDIDTRKINNSFLRDHSYATEA [PPP2R2B] | 4.77 ± 0.19 | 4.72 ± 0.12
MEEFRRSYSRLCRESGAEPQEAVL [LRRC45] | 3.77 ± 0.22 | 3.84 ± 0.27
MENVPKENKVVEKAPVQNEAPALG [BEX5] | 5.33 ± 0.19 | 5.46 ± 0.16
MERTGGIGDSRPPSFHPHAGGGSQ [DVL3] | 4.5 ± 0.18 | 4.69 ± 0.16
MGFVPHNGSLYGQASSERLGLDNR [ADAMTSL2] | 3.59 ± 0.38 | 3.66 ± 0.35
MGPDEYEEMEEEEEEEEEEDEDDD [FBXO3] | 5.42 ± 0.22 | 5.47 ± 0.14
MGVVSLVFLIIYYLDPSVLSGVSC [ARL6IP1] | 3.18 ± 0.51 | 3.13 ± 0.33
MITLSEAYIQIWKRRDNDETNQQG [USP39] | 3.15 ± 0.31 | 3.31 ± 0.38
MKQLQQQQHSDKTSLQGLTGTPLV [ISL2] | 4.01 ± 0.35 | 4.2 ± 0.23
MMEKILGPIPSHMIHRTRKQKYFY [CLK3] | 2.27 ± 0.84 | 2.12 ± 0.3
MMHGRSYSLASGAGGGGSKGNSLK [RAB40C] | 4.32 ± 0.061 | 4.51 ± 0.15
MNKSENLLFAGSSLASQVHAAAVN [INVS] | 3.11 ± 0.24 | 3.35 ± 0.34
MPLEQRSQHCKPEEGLEARGEALG [MAGEA3] | 5.34 ± 0.34 | 5.39 ± 0.14
MQNSNECKRNFVAVYDGSSSVEDL [NETO1] | 4.59 ± 0.066 | 4.68 ± 0.22

Sequence | protein stability index (treatment: DMSO) | protein stability index (treatment: MLN4924 1 uM, 8 h)
MREQYEAMAERNRRDAEEWFHAKS [KRT13] | 4.81 ± 0.28 | 4.75 ± 0.17
MSLRNRLSKSRENPEEDEDQRNPA [SOAT1] | 5.58 ± 0.14 | 5.45 ± 0.14
MSQRNLNAKTEQGPTGVTMTSNPI [CDK11A] | 4.53 ± 0.23 | 4.64 ± 0.17
MTSTGQDSTTTRQRRSRQNPQSPP [HDAC6] | 5.46 ± 0.14 | 5.4 ± 0.12
MTTTFLQTSSSTFGGGSTRGGSLL [KRT15] | 2.8 ± 0.35 | 2.97 ± 0.46
MVGGLKRKHSDLEEEEERWEWSPA [SERTAD3] | 4.23 ± 0.4 | 4.56 ± 0.16
MVTQILGAMESQVGGGPAGPALPN [ELAVL3] | 2.69 ± 0.098 | 3.01 ± 0.53
NAAHLGDKRRDLAHLAAEVEGKCL [TRIM39] | 4.46 ± 0.22 | 4.5 ± 0.16
NCIHRDIKPENILITKQGIIKICD [CDKL4] | 2.51 ± 0.39 | 3.28 ± 0.24
NDPSVNSQAQETTIIASNAEEAEI [TOR1AIP2] | 5.5 ± 0.13 | 5.59 ± 0.34
NEHSAHCPHTPEFSVTGGTEEKSS [RPAIN] | 5.44 ± 0.24 | 5.28 ± 0.15
NETVNSIFAQGAPRSSLAESFFVD [ADAMTSL2] | 3.77 ± 0.086 | 3.86 ± 0.073
NFDNPWNFQNIPKETELPFPKQIL [MIA2] | 2.74 ± 0.27 | 2.9 ± 0.4
NFVYNSPRGYFHTFAGDTCQVALN [WASL] | 2.24 ± 0.44 | 2.27 ± 0.64
NGSISSAGNSSRNSSQSSSDGSCK [BTBD10] | 5.01 ± 0.23 | 5.2 ± 0.16
NGSYLELSSDRVANSSSEAPFPNV [ADAMTSL2] | 4.52 ± 0.18 | 4.28 ± 0.15
NHGLVSVGESVEEAFYYIHNLVVA [ADD1] | 2.24 ± 0.31 | 2.1 ± 0.58
NINDRIKELGTLIPKSSDPEMRWN [TFE3] | 3.58 ± 0.33 | 3.77 ± 0.17
NIYVHDLLTFQQITTVSKAKGASL [VPS39] | 2.32 ± 0.3 | 2.27 ± 0.34
NKPTMSFKDYIQERSDPVEQGKPV [ETS2] | 4.75 ± 0.23 | 4.83 ± 0.26
NKSVTLYTVKDKATGEVLGQFYLD [NLN] | 2.13 ± 0.3 | –
NKWTVQYNVSPLSWNVAVKFLMAR [PTPN9] | 2.47 ± 0.54 | 2.15 ± 0.38

Sequence | protein stability index (treatment: DMSO) | protein stability index (treatment: MLN4924 1 uM, 8 h)
NLLESKADGIEVSYNACGVLSHIM [ZER1] | 2.25 ± 0.08 | 2.31 ± 0.28
NLQCLYCEKTFRDKNTLKDHMRKK [ZNF277] | 3.29 ± 0.42 | 3.39 ± 0.66
NNLAASQLKLDHYRAALRSCSLVL [FKBP8] | 2.62 ± 0.11 | 2.35 ± 0.27
NNWDKWMAKKHKKIRLRCQKGIPP [TBC1D10A] | 2.74 ± 0.24 | 3.1 ± 0.12
NQLILTASADRTVIVWDGDTTRQV [WDR41] | 2.79 ± 0.2 | 3.12 ± 0.2
NQPTRFGKLLLRLPSLRTVSSSVI [NR2F2] | 2.44 ± 0.24 | 2.5 ± 0.2
NRDSSMKLSFRARAYGFRGPGPQL [CHGA] | 2.44 ± 0.28 | 2.47 ± 0.42
NRGLILYRLGYFDDALEDFKKVLD [TTC32] | 2.05 ± 0.59 | 2.24 ± 0.14
NRLASLQQENKVLKIELETYKLKC [CCDC6] | 2.89 ± 0.28 | 3.23 ± 0.21
NRLMLAVRDMMANFHLNDLEAPHE [TCF25] | 2.5 ± 0.42 | 2.42 ± 0.24
NRQTFVNSAIRFLRKYSFDGLDLD [CHIT1] | 1.99 ± 0.27 | 2.48 ± 0.22
NSLWKKNKTICKERLQILCFFLLI [NLN] | 2.9 ± 0.4 | 2.4 ± 0.42
NTDVSMENMVTVGFFSCMGTLCIG [KCNK9] | 2.81 ± 0.52 | 2.8 ± 0.61
NTPFQLSIAPPEAEGVVLSDSPDA [PPTC7] | 5.41 ± 0.15 | 5.37 ± 0.18
NTTEELEALITDPDEMRMQALLIR [FEM1A] | 3.93 ± 0.29 | 3.86 ± 0.27
NVEDEAETKKVLGLQDTITAELVV [PALM] | 4.3 ± 0.28 | 4.25 ± 0.18
NVQILLPVGEPVTNVRLQPAATWN [FCHO1] | 2.32 ± 0.22 | 2.44 ± 0.19
NYLFMGDYVDRGYYSVETVTLLVA [PPP2CA] | 2.71 ± 0.6 | 2.82 ± 0.56
NYQVFQKVTDHATTALLHYQLPQM [MED27] | 2.52 ± 0.21 | 2.25 ± 0.24
PAGAGPSPTFPALGIGMDSCVIPL [SEPHS2] | 3.14 ± 0.43 | 3.26 ± 0.34
PAGKTPVPAGEEEGELGEYRQKLL [VPS39] | 5.29 ± 0.32 | 5.45 ± 0.2
